Measurements reported in patent US20220403048A1, “BINDING MOLECULES TO ARGINASE II [ARG2]” (Cancer Research Technology Limited, priority 2019, published 2022).

Columns and labels:
[1] = biological target: T1, biotinylated recombinant human trimeric ARG2 enzyme (Homo sapiens, UniProt P78540, E275H/R327K); assay: C0020187 IgG epitope competition HTRF assay; format: binding; conditions: clones in scFv format, FIG. 8; read-out: 18° IgG epitope competition assay IC50
T1 construct: His10 (after a GGG linker) (C); made in house; host or cells: E. coli BL21 (DE3)
T1 sequence (P78540 with tags, fused parts or gaps E275H/R327K): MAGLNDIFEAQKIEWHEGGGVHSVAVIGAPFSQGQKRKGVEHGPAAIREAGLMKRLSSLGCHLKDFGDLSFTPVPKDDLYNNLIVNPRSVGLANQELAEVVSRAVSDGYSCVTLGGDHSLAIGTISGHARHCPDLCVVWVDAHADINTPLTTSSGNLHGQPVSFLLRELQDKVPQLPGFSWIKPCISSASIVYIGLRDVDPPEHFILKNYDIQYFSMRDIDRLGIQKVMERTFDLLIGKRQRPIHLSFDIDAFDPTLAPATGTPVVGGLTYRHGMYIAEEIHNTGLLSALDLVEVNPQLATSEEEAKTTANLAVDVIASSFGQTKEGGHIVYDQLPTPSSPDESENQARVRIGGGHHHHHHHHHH
Description: Two thousand and twenty four scFv chosen at random from selection rounds 3 and 4 of the targeted mutagenesis approach described in section 2.2, 2.3 and 2.4 were expressed in E. coli to produce unpurified periplasmic scFv. Those scFv capable of competing with C0020187 IgG for binding to recombinant human trimeric ARG2 enzyme (i.e., those scFv that bind at or near the epitope bound by C0020187 IgG) were elucidated in a competition format assay, using the HTRF™ platform. […]
A ‘Maximum’ binding signal was determined by analysing the binding of C0020187 IgG to biotinylated recombinant human trimeric ARG2 enzyme in the absence of competitor scFv. […] Finally, a ‘Background’ signal was determined by analysing the fluorescence generated in the absence of C0020187 IgG.
Unpurified periplasmic scFv were supplied in sample buffer consisting of 200 mM tris base, pH 7.4, 0.5 mM EDTA, and 0.5 M sucrose. […] Assay plates were sealed and then incubated overnight at room temperature in the dark, prior to measuring time-resolved fluorescence at 620 and 665 nm emission wavelengths on a fluorescence plate reader.
Data were analysed by calculating % Delta F values for each sample. % Delta F was determined according to equation 1. […]
Data were again analysed by calculating the % Delta F and % Control binding values for each sample. […]

trimeric human ARG2 = biological target: T2, trimeric human ARG2 (Homo sapiens, UniProt P78540); assay: Human trimeric ARG2 enzyme inhibition assay (urea production); format: biochemical; conditions: clones in scFv format, FIG. 9; read-out: Trimeric human ARG2 EIA IC50
T2 construct: human ARG2 (aa23-354); His10 (C); made in house; host or cells: E. coli BL21 (DE3)
T2 sequence (P78540 23-354): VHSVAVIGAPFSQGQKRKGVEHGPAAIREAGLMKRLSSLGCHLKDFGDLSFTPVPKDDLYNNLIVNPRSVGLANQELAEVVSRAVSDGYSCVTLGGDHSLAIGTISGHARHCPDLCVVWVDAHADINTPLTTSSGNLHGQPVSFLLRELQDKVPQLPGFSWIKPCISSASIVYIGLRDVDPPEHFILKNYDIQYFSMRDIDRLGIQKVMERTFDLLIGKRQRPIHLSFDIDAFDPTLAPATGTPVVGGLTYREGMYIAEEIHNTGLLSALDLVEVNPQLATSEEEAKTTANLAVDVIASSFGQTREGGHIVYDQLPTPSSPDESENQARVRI
Method: Unpurified anti-ARG2 scFv fragments from periplasmic preparations were screened in an ARG2 enzyme inhibition assay using a Pherastar plate reader (BMG Labtech, Germany). In this assay, the ability of unpurified scFv to inhibit the enzymatic activity of trimeric ARG2 was determined by measuring the production of urea, the product of L-arginine turnover by ARG2.
Selection outputs were screened as unpurified bacterial periplasmic extracts containing scFv, prepared in 200 mM TES buffer pH 7.4, 0.5 mM EDTA and 0.5 M sucrose. 10 μl of unpurified scFv were added to a Greiner Bio-One® 384 well assay plate (Greiner Bio-one, UK; cat: 781901). This was followed by the addition of 5 μl of 1.6 μg/ml trimeric human ARG2 that had been diluted in 40 mM MnCl2, 100 mM tris-HCl, pH7.4 (4× enzyme buffer). […]
Urea was detected by the simultaneous addition of equal volumes of O-Phthaldialdehyde (1.5 mM O-Phthaldialdehyde, 7% H2SO4, 0.03% Brij L23) and N-(1-Napthyl)ethylenediamine (1.66 mM N-(1-Napthyl)ethylenediamine, 81 mM Boric acid, 21% H2SO4, 0.03% Brij L23) followed by an 18 minute incubation at room temperature before the colorimetric product was quantified on the Pherastar by measuring absorbance at 505 nm. […]
Data were analysed by calculating % maximum (max) control for each sample using the 505 nm absorbance data. % max control was determined according to equation 2. […]
IC50 values were determined by testing a dilution series of the purified scFv, prepared in TBS, in the ARG2 enzyme inhibition assay described in section 1.5, substituting the unpurified scFv periplasmic preparation with the purified scFv.
Background control wells were defined for each plate by the omission of substrate. […] Data were analysed by calculating % maximum (max) control for each sample. % max control was determined according to equation 1 detailed in section 1.5. […]
Data were again analysed by calculating % Max control values for each sample. […]

IC50 [1]: 57.8 nM
IC50 (trimeric human ARG2): 97.6 nM
B1: C0021142: anti-ARG2 antibody, VH SEQ ID NO: 232, VL SEQ ID NO: 237 (antibody, listed as Homo sapiens, V domains shown)
VH: EVQLLESGGGLVQPGGSLRLSCAASGFTFSSYAMSWVRQAPGKGLEWVSAHTHSPGSTYYADSVKGRFTISRDNSKNTLYLQMNSLRAEDTAVYYCARLRADLGLYMDLWGRGTLVTVSS
VL: QSVLTQPPSVSAAPGQKVTISCSGSSSNIGNHYVSWYQQLPGTAPKLLIYDNSERPSGVPDRFSGSKSGTSATLGITGLQTGDEADYYCGTWDSSLSALVFGGGTKLTVL
modifications: C0021142
